# Where a chain is given by its changes, count along the chain named. Names and notes keep the numbering of the source.
# B1: 103: single-site mutant rice HPPD, A103S (protein)
# chain: MPPTPTPTATTGAVSAAAAAGENAGFRLVGHRRFVRANPRSDRFQALAFHHVELWCSDAASAAGRFAFALGAPLAARSDLSTGNSAHASLLLRSASVAFLFTSPYGGDHGVGADAATTASIPSFSPGAARRFAADHGLAVHAVALRVADAADAFRASVAAGARPAFQPADLGGGFGLAEVELYGDVVLRFVSHPDGADAPFLPGFEGVSNPGAVDYGLRRFDHVVGNVPELAPVAAYISGFTGFHEFAEFTAEDVGTAESGLNSVVLANNAETVLLPLNEPVHGTKRRSQIQTYLDHHGGPGVQHIALASDDVLGTLREMRARSAMGGFEFLAPPPPNYYDGVRRRAGDVLSEEQINECQELGVLVDRDDQGVLLQIFTKPVGDRPTFFLEMIQRIGCMEKDESGQEYQKGGCGGFGKGNFSELFKSIEEYEKSLEAKQAPTVQGS
# modifications: The amino acid sequence of rice HPPD mutant (OsHPPD_A103S)
# notes: single-site mutant rice HPPD, A103S
# B2: N338D/G342D/R346C: mutant rice HPPD (protein, listed as Oryza sativa)
# chain: B1 chain with S57A, S103A, N338D, G342D, R346C
# modifications: The amino acid sequence of Wild-Type rice HPPD protein (OsHPPD _WT)
# B3: N338S/G342D/R346C (protein)
# chain: B1 chain with S57A, S103A, N338S, G342D, R346C
# B4: G342D: single-site mutant rice HPPD (protein, listed as Oryza sativa)
# chain: B1 chain with S57A, S103A, G342D
# modifications: The amino acid sequence of Wild-Type rice HPPD protein (OsHPPD _WT)
# B5: H141R/N338D/G342D/P386T: mutant rice HPPD (protein)
# chain: B1 chain with S57A, S103A, H141R, N338D, G342D, P386T
# B6: H141R/N338D/G342D: mutant rice HPPD (protein)
# chain: B1 chain with S57A, S103A, H141R, N338D, G342D
# B7: H141R/G342D/G419F: mutant rice HPPD (protein)
# chain: B1 chain with S57A, S103A, H141R, G342D, G419F
# B8: H141R/N338D/G342D/K418P/G419F/N420S: mutant rice HPPD (protein)
# chain: B1 chain with S57A, S103A, H141R, N338D, G342D, K418P, G419F, N420S
# B9: H141R/N338D/G342D/R346C: mutant rice HPPD (protein)
# chain: B1 chain with S57A, S103A, H141R, N338D, G342D, R346C
# B10: N338D/G342D: mutant rice HPPD (protein)
# chain: B1 chain with S57A, S103A, N338D, G342D
# B11: H141R/N338D/N420S: mutant rice HPPD (protein)
# chain: B1 chain with S57A, S103A, H141R, N338D, N420S
# B12: H141R/G342D/K418P: mutant rice HPPD (protein)
# chain: B1 chain with S57A, S103A, H141R, G342D, K418P
# B13: H141R/N338D/G342D/R346H: mutant rice HPPD (protein)
# chain: B1 chain with S57A, S103A, H141R, N338D, G342D, R346H
# B14: G342D/R346C: mutant rice HPPD (protein, listed as Oryza sativa)
# chain: B1 chain with S57A, S103A, G342D, R346C
# modifications: The amino acid sequence of Wild-Type rice HPPD protein (OsHPPD _WT)
# Test system: rice HPPD (OsHPPD)
# Test: Color reaction of recombinant E. coli expressing wild-type or mutant rice HPPD, cultured in 96-well plate in medium containing an HPPD-inhibiting herbicide and tyrosine
# Type: cell-based, Oryza sativa
# Parameters: key to relative resistance to Tembotrione / relative resistance to Benzuofucaotong metabolic product / relative resistance to Huanbifucaotong / relative resistance to Topramezone / relative resistance to Mesotrione / resistance to Tembotrione / resistance to Benzucfucaotong metabolic product / resistance to Huanbifucaotong / resistance to Topramezone / resistance to Mesotrione: The more the plus sign “+”, the deeper the color and the higher the resistance/tolerance as compared to the wild type
# Settings: Table 1, single-site mutants; estimated from color change, wild type = +
# Text: The rice full-length OsHPPD enzyme has 446 amino acids and its amino acid sequence is set forth in SEQ ID NO: 2, wherein the amino acids 1-50 are considered to constitute a signal peptide which is responsible for directing into chloroplast (Siehl et al. Plant Physiol. 2014 November; 166(3): 1162-1176). Therefore, from the amino acid at the 51-position to the amino acid at the […], a saturated random mutation was made for each amino acid. This was achieved by performing a bridge PCR by using a primer containing a coding sequence of an amino acid to be mutated into NNK and another suitable conventional primer. In NNK, N represented A/T/G/C and K represented G/T, and the NNK codon could encode any one of 20 amino acids or terminators. Accordingly, this was a saturated mutation. Please see: Kille S. Acevedo-Rocha C G, Parra L P, Zhang Z G, Opperman D J, Reetz M T, Acevedo J P (2013) Reducing codon redundancy and screening effort of combinatorial protein libraries created by saturation mutagenesis. ACS Synth Biol 2(2):83-92; Directed Evolution Library Creation: methods and protocols 2nd ed. Edited by Elizabeth M. J. Gillam, Janine N. Copp and David F. Ackerley New York, NY United States: Springer, 2014. doi:10.1007/978-1-4939-1053-3. A large number of mutants would be produced. The mutant was cloned into a linearized pET-44a vector and transformed into E. co/i, which was cultivated by using a 96-well plate in a 2×YT culture solution containing an HPPD-inhibiting herbicide (such as 1-2 μM tembotrione) and a substrate tyrosine (1 g/L) in a shaker at 28° C. and 150 rpm for 24 hours for expression, and then the mutants were rapidly screened out according to their color browning. By using the method, 10 single amino acid mutants, A103S, H141R, H141 K, H141T, A165V, V191I, R220K, G342D, D370N and K410I, were screened out. The color reaction of these resistant mutants in the presence of tembotrione and the metabolic product of benzuofucaotong relative to that of the wild type was as shown in FIG. 1.
# Similarly, the color reaction of these mutants in the presence of the other three HPPD-inhibiting herbicides huanbifucaotong, topramezone and mesotrione were determined, see FIGS. 2 and 3. The resistance/tolerance of each of the mutants to the five herbicides was roughly estimated on the basis of color changes thereof and the results were shown in Table 1. The more the plus sign “+”, the deeper the color and the higher the resistance/tolerance as compared to the wild type.
# HPPD-inhibiting herbicides inhibited HPPD enzymatic activity. When tyrosine was converted to 4-hydroxyphenylpyruvate (HPP) under the action of tyrosine transaminase, the inactivated HPPD was unable to oxidize 4-hydroxyphenylpyruvate into homogentisic acid (HGA). HGA was dark brown. Therefore, if an HPPD mutant was resistant to or tolerant to an herbicide, after expressed in E. coli, the mutant could also oxidize 4-hydroxyphenylpyruvate into homogentisic acid, whereby dark brown appeared. Therefore, E. coli was cultured in a 2×YT culture medium containing a HPPD-inhibiting herbicide and a substrate tyrosine using a 96-well plate to express HPPD, and these mutants were rapidly screened according to their color changes. • (1) Preparation of 2×YT culture medium (1 g/L L-Tyr, 0.1 mM IPTG, 0.01 mM MnCl2 and 100 mg/L ampicillin were added). • (2) 0.1 mL of the above medium was added to each well of a 96-well plate, and the expression clones of OsHPPD wild type or mutant (OsHPPD Mut) from the E. coli plate obtained by the above transformation were subjected to liquid culture in the 96-well plate. HPPD inhibitors having a final concentration of 1 μM-20 μM were added according to different selected agents, for example, the final concentration of tembotrione was 1.7 μM while mesotrione was 10 μM. […]
row,Molecule,relative resistance to Huanbifucaotong
1,B1,+

# Same assay, conditions: compound 101
row,Molecule,resistance ranking in color reaction
1,B2,highest resistance
2,B3,highest resistance

# Same assay, conditions: tembotrione and metabolic product of benzuofucaotong, FIG. 1
row,Molecule,color change compared with wild type
1,B4,obviously deeper than that of the wild type

# Test system: OsHPPD
# Test: HPPD enzyme activity assay: Km, Kcat and Kcat/Km of OsHPPDs
# Type: biochemical, Oryza sativa
# Settings: not given
# Protocol: The rice OsHPPD protein and homogentisate 1,2-dioxygenase (HGD) were obtained by heterologously expressed in E. coli wherein the gene was inserted into the pET 15b expression vector and expressed in the BL21 (DE3) expression strain, and purified by the Ni-NTA resin. • (1) The HPPD open reading frame (ORF) of the positive clone was cloned into the pET-15b vector to form a 6His-HPPD expression vector, and transformed into the BL21 (DE3) cell. The expression strain was inoculated in 10 mL of 2×YT culture medium, and cultivated overnight on a shaker at 37° C. and 200 rpm. The 10 mL of the culture was inoculated in 1 L of 2×YT culture medium and cultivated until the OD600 reached 0.6-0.8, cooled to a temperature of 16° C., and subjected to induced-expression with 0.2 mM IPTG (isopropyl thiogalactoside) overnight. The strains were collected by centrifugation at 2800×g. • (2) The collected strains were re-suspended with the buffer A (50 mM Tris pH 8.0, 500 mM NaCl, 20 mM imidazole), to which PMSF (phenylmethanesulfonyl fluoride) at the final concentration of 1 mM and 250 μL of a protease inhibitor cocktail (i.e., a mixture of multiple protease inhibitors), and mixed. The cells were broken by ultrasound in ice-bath (40% total power, work for 3 seconds/6 seconds interval, 2×30 minutes (Ningbo Scientz Biotechnology Co., Ltd., Ningbo, China)), and centrifuged at 12000 rpm at 4° C. for 30 minutes; and the supernatant was filtered with a 0.22 μm filter membrane. • (3) Purification with the Ni-NTA column: the supernatant was in contact with the Ni-NTA resin, then rinsed with a buffer A containing 50 mM imidazole to remove the impurities, and finally, eluted with an elution buffer containing 400 mM imidazole. • (4) The approximate purity of the protein of interest was analyzed by SDS-PAGE. The eluates containing of the protein of interest were combined and concentrated by an ultrafiltration device (10 kDa molecular weight cut-off, Amicon Ultra). The solution was replaced with a solution containing 20 mM Tris-HCl and having a pH of 7.5 for at least 3 times to desalt. The total protein concentration was determined by the BCA method.
# (§1) • 1. The activity of a HPPD enzyme was determined by detecting the conversion of 4-hydroxyphenylpyruvate (4-HPP) to homogentisic acid (HGA) catalyzed by the HPPD enzyme and the conversion of HGA to maleylacetoacetate (MAA) catalyzed by homogentisate dioxygenase. […] 6 μl of 4-hydroxyphenylpyruvate (4-HPP) having a concentration that was as 50 times as the final concentration of the substrate were added to an ELSA plate, and then 294 μL of hydroxyethylpiperazine ethanesulfonic acid (HEPES) with a final concentration of 25 mM and pH of 7, 2 mM of Vitamin C, 10 mM FeSO4, 50 nM homogentisate dioxygenase and 5 to 240 nM HPPD enzyme were added thereto at one time. The final concentration of reaction substrate 4-HPP usually ranged from 1 to 100 μM. • 3. The absorbance changes of the reaction wells at 318 nm were continuously monitored by a UV ELISA detector (ReadMax 1900 photoabsorption type full-wavelength microplate reader) (Shanghai). • 4. Determination of Km, Kcat and Kcat/Km of OsHPPDs
# Vmax is the maximum catalytic reaction rate achievable by enzymatic catalysis. The Michaelis constant Km is the concentration of a substrate required when the enzyme catalyzed the reaction to achieve half of the maximum rate (Vmax). The Km value is a constant and independent of the enzyme concentration, and altered as substrate type, reaction temperature, pH, and ionic strength changed. […] is a catalytic constant of an enzyme and referred to the number of substrate molecules that could be catalyzed by an enzyme molecule or enzyme active center per second. KCat/Km represents the catalytic efficiency of enzyme. It could be seen from the data in the table that the catalytic efficiency of most HPPD mutants was enhanced.
row,Molecule,affinity to substrate (Km)
1,B5,not reduced
2,B6,not reduced

# Same assay, conditions: substrate 4-HPP
row,Molecule,Km [µM]
1,B7,7.9
2,B5,9.7
3,B8,23
4,B9,7.4
5,B10,2.1
6,B2,9.5
7,B11,5.1
8,B12,30.6
9,B6,6.3
10,B13,7.6
11,B14,5.9

# Test system: OsHPPD proteins
# Test: Inhibitory activity (IC50) of the herbicide 101 and huanbifucaotong against OsHPPD proteins
# Type: biochemical, Oryza sativa
# Settings: herbicides 101 and huanbifucaotong
# Protocol: as §1
# • 5. Determination of inhibitory activity (IC50) of the herbicide 101 and huanbifucaotong against OsHPPD proteins
# Due to the unique properties of each of 101 and huangbifucaotong, the degree of the increased IC50 value is not completely consistent for the two HPPD herbicides.
row,Molecule,resistance in in vitro enzyme activity experiments
1,B5,relatively high resistance
2,B6,relatively high resistance

# Source: patent publication US12428627B2, “Mutant p-hydroxyphenylpyruvate dioxygenase, and coding nucleic acid and use thereof” (Qingdao Kingagroot Chemical Compound Co., Ltd., priority 2018, dated 2025)
